The record followed here is US20090246219A1.

For the experiment, the target named is recombinant truncated protein E pE22-160, designated pE(A) (H. influenzae (NTHi strain 772)). The experiment can be described thus: Western blot of pE(A) probed with IgD(λ).

On to “human IgD(λ) myeloma protein (human IgD myeloma whole serum IgD(λ), The Binding Site, Birmingham, England) (antibody)”, for which the amount of pE(A) detected on Western blot was 0.01 microg.
